Measured values from US20190111164A1 (Boehringer Ingelheim, published 2019).
Substitutions are numbered along the chain they refer to. * marks the point of attachment. αGalNAc = CC(=O)N[C@@H]1[C@@H](O)[C@@H](O)[C@@H](CO)O[C@@H]1*

T1: IgA-Pep05
T1 construct: also called IgA-Pep12; IgA-Pep14
T1 peptide: H-KPSTPPTPSPSC-OH

T2: a-Dystroglycan peptide (no Tn)
T2 construct: Unmodified control of the a-Dystroglycan glycopeptide
T2 peptide: Ac-PPTTTTKKP-NH2

T3: IgA-Pep16 (SMILES …)
T3 peptide: H-KPSTPPTPS(αGalNAc)PSC-OH

T4: E-MUC2 (SMILES …)
T4 construct: also called Ac-PT*TT*PLK-NH2
T4 peptide: Ac-PT(αGalNAc)TT(αGalNAc)PLK-NH2

T5: IgA-Pep10
T5 peptide: H-KPSPSTPPTPSC-OH

T6: F-MUC2 (SMILES …)
T6 construct: also called Ac-PTT*T*PLK-NH2
T6 peptide: Ac-PTT(αGalNAc)T(αGalNAc)PLK-NH2

T7: B-MUC2 (SMILES …)
T7 construct: also called Ac-PTT*TPLK-NH2
T7 peptide: Ac-PTT(αGalNAc)TPLK-NH2

T8: IgA-Pep03 (SMILES …)
T8 construct: also called H2N-KPVPS*TPPTPSC-OH
T8 peptide: H-KPVPS(αGalNAc)TPPTPSC-OH

T9: D-MUC2 (SMILES …)
T9 construct: also called Ac-PT*T*TPLK-NH2
T9 peptide: Ac-PT(αGalNAc)T(αGalNAc)TPLK-NH2

T10: MUC1-1 (SMILES …)
T10 construct: also called H2N-TSAPDT*RDAP-NH2
T10 peptide: H-TSAPDT(αGalNAc)RDAP-NH2

T11: C-MUC2 (SMILES …)
T11 construct: also called Ac-PTTT*PLK-NH2
T11 peptide: Ac-PTTT(αGalNAc)PLK-NH2

T12: G-MUC2 (SMILES …)
T12 construct: also called Ac-PT*T*T*PLK-NH2
T12 peptide: Ac-PT(αGalNAc)T(αGalNAc)T(αGalNAc)PLK-NH2

T13: MUC1-2R
T13 peptide: H-APGSTAPP-NH2

T14: a-Dystroglycan glycopeptide (four Tn) (SMILES …)
T14 construct: also called Ac-PPT*T*T*T*KKP-HN2
T14 peptide: Ac-PPT(αGalNAc)T(αGalNAc)T(αGalNAc)T(αGalNAc)KKP-NH2

T15: Peptide-4
T15 construct: also called H2N-KTTT-CONH2
T15 peptide: H-KTTT-NH2

T16: A-MUC2 (SMILES …)
T16 construct: also called Ac-PT*TTPLK-NH2
T16 peptide: Ac-PT(αGalNAc)TTPLK-NH2

T17: IgA-Pep08 (SMILES …)
T17 peptide: H-KTPPTPSPST(αGalNAc)PC-OH

T18: MUC1-2 (SMILES …)
T18 construct: also called H2N-APGS*T*APP-NH2
T18 peptide: H-APGS(αGalNAc)T(αGalNAc)APP-NH2

T19: EA2 (SMILES …)
T19 construct: also called Ac-PTTDSTT*PAPTTK-NH2
T19 peptide: Ac-PTTDSTT(αGalNAc)PAPTTK-NH2

T20: IgA-Pep02
T20 peptide: H-KPVPSTPPTPSC-OH

T21: Peptide-5
T21 construct: also called H2N-KTTTG-CONH2
T21 peptide: H-KTTTG-NH2

T22: MUC1-1R
T22 peptide: H-TSAPDTRDAP-NH2

T23: EA2-R
T23 peptide: Ac-PTTDSTTPAPTTK-NH2

T24: MUC5AC (SMILES …)
T24 peptide: H-GTTPSPVPT(αGalNAc)TSTTSAP-OH

T25: IgA-Pep18 (SMILES …)
T25 peptide: H-KPST(αGalNAc)PPTPSPSC-OH

T26: IgA-Pep07
T26 peptide: H-KTPPTPSPSTPC-OH

T27: IgA-Pep13 (SMILES …)
T27 construct: also called H2N-KPS*TPPT*PSPSC-OH
T27 peptide: H-KPS(αGalNAc)TPPT(αGalNAc)PSPSC-OH

B1: 2F3 parent antibody (antibody, V domains shown)
VH: QITLRESGGGLVQPGGSLRLSCAASGFTFDSYAMSWVRQAPGKGLEWVSAISGSGDSTYYADSVKGRFSISRDNSKNTLYLQMNSLRAEDTAVYYCAIRREYSGYAPFDYWGQGTLVTVSS
VL: DIVMTQTPSSLSASVGDRVTITCRASQGISSWLAWYQQKPEKAPRSLIYAASSLQSGVPSRFSGSGSGTDFTLTISSLQPEDFATYYCQQYISYPYTFGQGTKLEIK
notes: Only variable domains are used here; V genes were cloned into human IgG1 (or IgG3)/kappa; also called 2F3 Original; original 2F3 parent
B2: 2F3 variant #6 (antibody, IgG1, V domains shown)
VH: B1 VH with I2V, T3Q, R5L, D56A, T118I
VL: B1 VL
notes: Mutant heavy chain in an IgG expression vector, co-expressed with the wild type 2F3 light chain (IgG1, kappa); also called 2F3#6; clone 6
B3: 2F3 variant #17v2 (antibody, IgG1, V domains shown)
VH: B1 VH with D56H, S85N
VL: B1 VL
notes: IgG1, kappa, wild type 2F3 light chain; also called 2F3#17V2; 2F3#17v2

Tests used:
IgA-Pep05 [1] = target: T1, IgA-Pep05; test: glycopeptide microarray, antibody at 50 ug/mL; spot IgA-Pep05
Description: (§1) With concentrations adjusted to 100 μM in printing buffer (300 mM sodium phosphates, pH 8.5), 0.33 nL of each solution was spotted using a piezoelectric printer. The microarray was printed in spot replicates of 6. Arrays were interrogated with monoclonal anti-Tn antibodies 2F3 parent, 2F3V variant 6, or 2F3 variant 17-2 and detected with fluorescently labeled secondary antibodies and streptavidin as noted. Scanning and quantification were performed with ProScanArray scanner and ScanArray Express software (Perkin-Elmer). The assay examined a panel of ˜50 Tn glycopeptides and addressed whether spacing, number of Tn modifications, specific residues modified, or sequence context contributed to the specificity of binding by 2F3. […] Ser-Tn near free termini and multiple Ser-Tn in a single peptide increased binding. Using the 2F3 parent antibody (“parent”), Variant 6 and Variant 17, the binding of the antibodies to a panel of different glycoproteins was assayed to determine the preferred Tn context recognized by 2F3 and the 2F3G1 variants. […] Importantly, modification to Thr residues gave rise to little to no binding. […] Furthermore, binding was observed not only to peptides that contained Ser-Tn, but specifically those that were at least 5 amino acids from the attachment point to the solid matrix. Ser-Tn near free termini and multiple Ser-Tn in a single peptide increased binding.
(§2) The antibodies were applied to glycopeptide arrays at a concentration of 5 ug/mL (no data shown form this group) or 50 ug/mL (data shown in bar chart and in the table 9).

IgA-Pep05 [2] = target: T1, IgA-Pep05; test: glycopeptide microarray, antibody at 50 ug/mL; spot IgA-Pep14
Description: as §1, §2

[3] = target: T2, a-Dystroglycan peptide (no Tn); test: glycopeptide microarray, antibody at 50 ug/mL
Description: as §1, §2

IgA-Pep16 = target: T3, IgA-Pep16; test: glycopeptide microarray, antibody at 50 ug/mL
Description: as §1, §2

E-MUC2 = target: T4, E-MUC2; test: glycopeptide microarray, antibody at 50 ug/mL
Description: as §1, §2

IgA-Pep10 = target: T5, IgA-Pep10; test: glycopeptide microarray, antibody at 50 ug/mL
Description: as §1, §2

F-MUC2 = target: T6, F-MUC2; test: glycopeptide microarray, antibody at 50 ug/mL
Description: as §1, §2

B-MUC2 = target: T7, B-MUC2; test: glycopeptide microarray, antibody at 50 ug/mL
Description: as §1, §2

IgA-Pep03 = target: T8, IgA-Pep03; test: glycopeptide microarray, antibody at 50 ug/mL
Description: as §1, §2

D-MUC2 = target: T9, D-MUC2; test: glycopeptide microarray, antibody at 50 ug/mL
Description: as §1, §2

MUC1-1 = target: T10, MUC1-1; test: glycopeptide microarray, antibody at 50 ug/mL
Description: as §1, §2

C-MUC2 = target: T11, C-MUC2; test: glycopeptide microarray, antibody at 50 ug/mL
Description: as §1, §2

G-MUC2 = target: T12, G-MUC2; test: glycopeptide microarray, antibody at 50 ug/mL
Description: as §1, §2

MUC1-2R = target: T13, MUC1-2R; test: glycopeptide microarray, antibody at 50 ug/mL
Description: as §1, §2

[4] = target: T14, a-Dystroglycan glycopeptide (four Tn); test: glycopeptide microarray, antibody at 50 ug/mL
Description: as §1, §2

Peptide-4 = target: T15, Peptide-4; test: glycopeptide microarray, antibody at 50 ug/mL
Description: as §1, §2

A-MUC2 = target: T16, A-MUC2; test: glycopeptide microarray, antibody at 50 ug/mL
Description: as §1, §2

IgA-Pep08 = target: T17, IgA-Pep08; test: glycopeptide microarray, antibody at 50 ug/mL
Description: as §1, §2

MUC1-2 = target: T18, MUC1-2; test: glycopeptide microarray, antibody at 50 ug/mL
Description: as §1, §2

EA2 = target: T19, EA2; test: glycopeptide microarray, antibody at 50 ug/mL
Description: as §1, §2

IgA-Pep02 = target: T20, IgA-Pep02; test: glycopeptide microarray, antibody at 50 ug/mL
Description: as §1, §2

Peptide-5 = target: T21, Peptide-5; test: glycopeptide microarray, antibody at 50 ug/mL
Description: as §1, §2

MUC1-1R = target: T22, MUC1-1R; test: glycopeptide microarray, antibody at 50 ug/mL
Description: as §1, §2

EA2-R = target: T23, EA2-R; test: glycopeptide microarray, antibody at 50 ug/mL
Description: as §1, §2

MUC5AC = target: T24, MUC5AC; test: glycopeptide microarray, antibody at 50 ug/mL
Description: as §1, §2

IgA-Pep18 = target: T25, IgA-Pep18; test: glycopeptide microarray, antibody at 50 ug/mL
Description: as §1, §2

IgA-Pep07 = target: T26, IgA-Pep07; test: glycopeptide microarray, antibody at 50 ug/mL
Description: as §1, §2

IgA-Pep13 = target: T27, IgA-Pep13; test: glycopeptide microarray, antibody at 50 ug/mL
Description: as §1, §2

IgA-Pep05 [5] = target: T1, IgA-Pep05; test: glycopeptide microarray, antibody at 50 ug/mL; spot IgA-Pep12
Description: as §1, §2

| Binder | RLU (IgA-Pep05 [1]) [RLU] | RLU (IgA-Pep05 [2]) [RLU] | RLU [3] [RLU] | RLU (E-MUC2) [RLU] | RLU (IgA-Pep10) [RLU] | RLU (F-MUC2) [RLU] | RLU (MUC1-1) [RLU] | RLU (C-MUC2) [RLU] | RLU (G-MUC2) [RLU] | RLU (MUC1-2R) [RLU] | RLU [4] [RLU] | RLU (Peptide-4) [RLU] | RLU (A-MUC2) [RLU] | RLU (IgA-Pep08) [RLU] | RLU (EA2) [RLU] | RLU (IgA-Pep02) [RLU] | RLU (Peptide-5) [RLU] | RLU (MUC1-1R) [RLU] | RLU (EA2-R) [RLU] | RLU (MUC5AC) [RLU] | other results |
| --- | --- | --- | --- | --- | --- | --- | --- | --- | --- | --- | --- | --- | --- | --- | --- | --- | --- | --- | --- | --- | --- |
| B1 | 28 | 43 | 37 | 8 | 19 | 11 | 11 | 9 | 10 | 4 | 24 | 7 | 45 | 22 | 11 | 26 | 10 | 7 | 15 | 23 | RLU (IgA-Pep16): 115 RLU; RLU (B-MUC2): 19 RLU; RLU (IgA-Pep03): 58 RLU; RLU (D-MUC2): 12 RLU; RLU (MUC1-2): 33 RLU; RLU (IgA-Pep18): 16 RLU; RLU (IgA-Pep07): 20 RLU; RLU (IgA-Pep13): 40 RLU; RLU (IgA-Pep05 [5]): 20 RLU |
| B2 | 60 | 38 | -4 | 27 | -127 | 54 | 14 | 22 | -39 | 0 | 28 | 31 | 55 | -6 | 18 | 35 | -6 | 7 | 45 | -14 | RLU (B-MUC2): 23 RLU; RLU (D-MUC2): 12 RLU; RLU (MUC1-2): 59 RLU; RLU (IgA-Pep18): 22 RLU; RLU (IgA-Pep07): 30 RLU; RLU (IgA-Pep05 [5]): 83 RLU |
| B3 | 149 | 112 | 86 | 87 | 125 | 70 | 61 | 30 | 51 | 6 | 51 | 33 | 65 | 282 | 16 | 75 | 41 | 19 | 29 | 87 | RLU (IgA-Pep18): 174 RLU; RLU (IgA-Pep07): 144 RLU; RLU (IgA-Pep05 [5]): 457 RLU |
